assay: purified protein yield per well (BCA); higher = higher soluble expression
In short: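 Values under 25 ug (0.1 mg/mL) are below the detection threshold. Purified protein yield per well was quantified with the Pierce Rapid Gold BCA kit after candidate enzymes, expressed in E. coli C41(DE3), were captured on Ni-charged magnetic beads and released by SUMO protease on an OT-2 robot. Cultures were 2 mL autoinduction with 100 µg/mL kanamycin, run 2 h at 37 °C and then 40 h at 18 °C.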

Purified protein yield per well, < 25 µg:
QSAGGNPYAIGPDPTASSLEASSGPFGYTSTTIPSSEATGYGGGTVYYPANVNIATGGIVVVPGYGATQSNISWWGPRLASNGFVVYTIDTTNIYDLPAQRAKEIMAAVAQLKTFSTTTGNEIYGKVDTNRIGIMGGSFGGGGTLIAETTHPQLKAAIPFVPKIASGNPDLSKITIPTLIIGCQEDQVAPPKSYAIPYYSAIPEQNHKAYLEISNGQHLCASTQGSDQNKPIIGKYGVAWMKRFIDNDSRYNPYLCGSPHQTDVSNSTVISGYKDTCPY [DP020], QSNPYARGPDPTTAALEASRGPFAFSSFSVTRPSGYGAGTVYYPTNAGGTVGAIAIVPGFFARQSSINWWGPRLASHGFVVITIDTNSTFDQPASRASQQMAALRQVATLAGTSSSPIYRKVDTARLGVMGWSMGGGGTLLAARDNPSLKAAAPQAPWNSSTTNFSSMTVPTLIIACESDSTAPTRSHAEPFYTSMSRNSKQYLEINNGSHSCANGGSNTGLLGKKGVAWMKRFMDEDRRYTSFACSNPNSSAVSDFRTANCS [ESM149], QSNPYQKGPDPTHASIEADGPYAVSTQALKGSGFGSGTVYSPNAAGSYALVAVCPGFVSAQSSIAQISRRLATHGFVVVTIDTNTIFDFPDSRSTQLLAALKAVAALSTGPAAGKIDTARQAVAGWSMGGGGTLLAAGSTPALKGAVAYAPWALNNNLKASKVPAAILGGTADIVAPPGIFADVFYKAIPAGSSKLLGIVKGADHFFSNTASQPASYTTVAWFKRFVDNDTRYGPFLNGDTRYSRFSYTGPF [TEP040], QSNPYQRGPAPTASSLEASRGPLAISQFTVSRPSGYRAGTVYYPTNAGGTVGAIAVVPGYTAYQSDINWWGPRLASWGFVVITIDTNSTLDQPSSRSRQQLAALDQVAALSRTSSSPIYNKVDTSRMGVMGWSMGGGGSLISTENRPSLKASIPFAPWNSTSSFSSVVTPTFIIACQSDIIAPVASHADDFYDSLSRPPKMFLEIRGGSHYCANSSNNDKGLLGSKGVAWMKRYIDNDTRFTSYACSNPNTLAVSDFRTARCS [ESM104], QSNPYQRGPNPTRAALMTDGPYAVATASVWPYIYGFGGGTIYYPTGTTETFGGIAVSPGFTADSTSLAWFGRRLASHGFVVIVINTNSRFDFPDSRASQLQAAIDYLRTNSPAAVRARLDENRIAVAGHSMGGGASLRASERLPWLKASVPLTPWHTDKTFSTSVPQLIIGAEWDTIAPVSSHAIPFYNNLPSSTPKVYLELNNATHFAPNTTNATISLYAISWMKRWVDNDTRYNQFLCGVNHTADPSISDYRTNAWTYCP [DP073], QSTTPTSSALNATAGPLAVSTSTVTLASGFGGGTIYYPTTAGSYGLIALCPGFTATETSLAWLARRLASWGFVVVNMNTTTTMDQPASRATQLMAALKYALNSSSSAVRARIDPSRLAVAGHSMGGGGTLIAARDNPTLKAGYPLTPWNSSTNFSGVTVPTMIIGSDGDTVAPVAQHARPFYASLPAATFKAYGELNNATHFTPNSTSTPIGRYGVAWMKRFLDGDTRYSTFLCGSEHAAYATSLVFDRYNQNCPY [ESM187], QSYVHGPDPTTAALETTGPYAVSNTKIAAPSGYGGGTVYYPTTNTEGAFAVVSVTPGFTEKQSAINWLGPLLASHGFVVVTIDTKTALDAPSSRAKQMIAALKQVSGLSANSTSPFAGRVDGTRQAVMGHSMGGGGSLDAARDNPTLKASIPMAPWETVKNYSTMTVPTLIVSCESDTIAPVASHANKFYDSFTPTLNKALLEMKGVGHSCTNSTTSAALKAVIGKYSISWLKRFADNDNRYSDFLCGASHQADVSGSLISTYKENCPY [DP066], QTNPYARGPNPTASSLEASTGPFAYRSFTVSRPSGYGAGTVYYPTNAGGTVGAIAIVPGYTARQSSINWWGPRLASHGFVVITIDTNSTLDQPSSRSRQQMAALQQVASLNSTSSSPIYGKVDTSRMGVMGWSMGGGGSLISARDNPSLKAAAPQAPWNTSSSFSSMTVPTLIFACESDSIAPVNSHASPMYNSMRSNPRQYLEINNGSHSCANSGNSNQALIGKKGVAWMKRYMDNDTRYSTFACQNPNSTRVSDFRVANCS [ESM094], QTNPYARGPNPTDSLLEASRGPFSISSFTVSRPSGYGAGTVYYPTNAGGTVGAIAIVPGYTARQSSINWWGPRLASHGFVVITIDTNSTLDQPSSRSRQQMAALSQVVSLSRTSTSPIYNKVDASRLGVMGWSMGGGGSLISARDNPSIKAAAPQAPWNTSSNFSSMTVPTLIFACENDSIASTSSHASPMYNSMRLNPRQYFEINNGSHSCANSGNSNQALIGKRGVAWMKRFMDNDTRYTSFACSNPNTFSVSEFRTANCS [ESM180], QTNPYARGPNPTRDSLEASRGPFAFSSFTVSRPSGYAGGTVYYPTNAGGTVGAIAVVPGFSARQSSINWWGPRLASHGFVVITIDTNSSFDQPPSRSRQQLAALDQVATLARTSGSPIYNKVDTTRMGVMGSSMGGGGSMISAQNRPSLKAAIPQSPSVSSTNFSSVVVPTLIFACENDTVPPGGSQAVAIYNSMMLNPKQLLEIAGGSPFCGNSN [ESM182], QTNPYERGPAPTTASLEASRGPFSISSFTVSRPSGYGAGTVYYPTNAGGTVGAIAIVPGFLARQSSINWWGPRLASHGFVVITIDTNSTLDQPASRSRQQLAALDQVAALARTSSSPIYNRVDTTRMGVMGWSMGGGGTLISAQNRPSIKAAAPQAPYNSSTNFSSVTVPTLIFACENDTVAPVNRHASPFYSSMSRNSKQYLEINGGSHSCANSGNSNQPLIGKKGVAWMKRFMDNDTRYTPFACANPNSTRVSEFRTANCS [ESM073], QTNPYERGPAPTTSSLEASRGPFSYQSFTVSRPSGYRAGTVYYPTNAGGPVGAIAIVPGFTARQSSINWWGPRLASHGFVVITIDTNSTLDQPDSRSRQQMAALSQVATLSRTSSSPIYNKVDTSRLGVMGWSMGGGGSLISARNNPSIKAAAPQAPWSASKNFSSLTVPTLIIACENDTIAPVNQHADTFYDSMSRNPREFLEINNGSHSCANSGNSNQALLGKKGVAWMKRFMDNDRRYTSFACSNPNSYNVSDFRVAACN [ESM158], QTPQAPTAASLNATSGPLSVSTQSVSSLSARGFGGGTVYYPTTAGRYGAVAISPGFTATQSSVAWLGRRLASHGLVVITINTNSTLDQPASRATQLMAALTYVTSASGTTVQSRVDPQRLAVAGHSMGGGGALIAARDNPTLKASLPLTPWNTTTNFSGIRVPTLIVGADGDTVASVTAHARPFYASLPSNTFKAYAELNSASHFTPNSANTPIGRYGVTWLKRFVDNDSRYSPFLCGAEHQAYATAQVFDRYQQNCPY [ESM188], QTPTRESLSRQGPYQVAYYSSLPDVPEYAGATLYFPANKGDSFGGVAIAPGFIETQENIAWWGEYLASYGFAVLTLDTNSPRDIPALRADALMAAVEIIRGENTRMGSPLRGKIDVTRMAIMGHSMGGGGTLLAANAHSDQLKAAIPFTPWLPDADFSAVAVPTLVIAGEIDRIAAAAGHAWPHFQTLPDNIPKMYLEIKGGNHFIANSVTDNEGLAPNIDVHDLVGSMS [TEP027], QTSAPTSASLNASSGPLSVSTASVTLPRGFGGGTIYYPTVAAKYGVIAISPGFTATQSSIAWLGRRIATHGFVVITINTNTTLDQPDSRATQLVAALNHVLNSSGTAVRSRIDPARLAVAGHSMGGGGSLIAARDNPTLKASYPMTPWNISSNFSTVRVPTMIIGADGDTVAPVGTHARPFYASLPSSTFKAYGELNGATHFAPNTTSTPIGRYAVAWMKRFVDGDTRYSPFLCGAQHTSYATGLVFDRYNQNCPY [ESM054], QTSAPTSASLNATAGPLSVSTASVLVPVGFGGGTIYYPTVAGQYGVIAISPGFTATQSSIAWLGRRIATHGFVVITLNTNTTLDQPDSRATQLLAALRYVTNSSGTAVRSRIDATRLAVAGHSMGGGGSLIAARDNPTLKASYPLTPWNISTNFSTVRVPTLIIGADGDTIAPVASHARPFYASLPSTTFKAYGELNNATHFTPNSTSTPIGRYGVAWFKRFLDGDTRYSPFLCGAQHTAYATALVFDRYNQNCPY [ESM141], QTSAPTSSSLNATSGYLSVASENVSSLSASGFGGGTIYYPSTSGQYGLIAISPGFTATESSVAWIGRKLASHGFVAIVINTNTTLDQPASRARQLRAALDHARLRASSTVRSRIDASRQAVAGHSMGGGGSLIAAEDDPTLKASFPLTPWNTTTSFTNVRVPTMIFGADGDTIAAVAAHARPFYASIPSSTKKAYAELNGATHFTPNSRNEAIGRYGVAWMKRFMDNDTRYSTFLCGSEHNSYNTSLRFDRYNSNCPY [ESM123]
